The sequences below were run on T1, MBP-Z3495 (LysR-type regulator) (Escherichia coli O157:H7 EDL933?), ORF:b652805f (assay: EMSA).
T1 sequence: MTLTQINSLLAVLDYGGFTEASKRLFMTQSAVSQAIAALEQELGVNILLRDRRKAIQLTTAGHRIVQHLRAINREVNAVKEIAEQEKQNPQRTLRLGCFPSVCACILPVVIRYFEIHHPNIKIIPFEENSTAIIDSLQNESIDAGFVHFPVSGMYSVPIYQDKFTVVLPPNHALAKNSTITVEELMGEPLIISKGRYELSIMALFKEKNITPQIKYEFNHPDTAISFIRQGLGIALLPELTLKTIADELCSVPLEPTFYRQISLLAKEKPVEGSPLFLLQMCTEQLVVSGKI
For “GTTATCGCAGGGAGCCACACAGCGTGTGTTGGACGCGACTCAGCTTTACCTTGGTGAGATTGGTTATTCACCACTGTTAACGGCCGAAGAAGAAGTTTATTTTGCGCGTCGCGCACTGCGTGGAGATGTCGCCTCTCGCCGCCGGATGATCGAGAGTAACTTGCGTCTGGTGGTAAAA (double strand) [rpoS fragment]”, the binding was “no binding”. “AATTCCCGATTACGCATCGCACCATTGAGAAGTTTTATTTTATATGAGGATAACATTTTTAAATTTTATTCATCCTGGTGGTTGAACAATGAGAAAAAATATGGTGAACTTACATCGTCTAAGAATAGAGTAGAAAGGAAGCTGTTGTACAGTACTATTTAATGGAATATTCATAATTAAT (double strand) [LEE4 promoter]” was tested, and the binding was “no binding”. With “TAAAAACTCTTCAACGTTTCTTTTAACTAAAAGATTCATCTGCAGGCTCTGAAGTAAGTATACGTGTGAATATTATTGCTTGAAAAAGCGTATTGGATAATATATACAGTATATGTACTTTATGTACATTGCAACTATTTAAATAATATAATAGTTGCCTATGGGATAATTTGGTTATTTATAACCAGGTAAATGTCTAAATTAGACAAAAGGAGAAAGATCAATGGAAGCAGCAAATTTAAGTCCTTCTGGTGCAGTAATGCCGCTGGCGACCTCACTCA (double strand) [LEE2/3 promoter]” the binding was “no binding”.

Reference: PMC10819331
